The target of assay [1] is T1, Full-length murine NT5E (recombinant) (murine, UniProt Q61503 29-552).
T1 construct: also called mNT5E
T1 sequence: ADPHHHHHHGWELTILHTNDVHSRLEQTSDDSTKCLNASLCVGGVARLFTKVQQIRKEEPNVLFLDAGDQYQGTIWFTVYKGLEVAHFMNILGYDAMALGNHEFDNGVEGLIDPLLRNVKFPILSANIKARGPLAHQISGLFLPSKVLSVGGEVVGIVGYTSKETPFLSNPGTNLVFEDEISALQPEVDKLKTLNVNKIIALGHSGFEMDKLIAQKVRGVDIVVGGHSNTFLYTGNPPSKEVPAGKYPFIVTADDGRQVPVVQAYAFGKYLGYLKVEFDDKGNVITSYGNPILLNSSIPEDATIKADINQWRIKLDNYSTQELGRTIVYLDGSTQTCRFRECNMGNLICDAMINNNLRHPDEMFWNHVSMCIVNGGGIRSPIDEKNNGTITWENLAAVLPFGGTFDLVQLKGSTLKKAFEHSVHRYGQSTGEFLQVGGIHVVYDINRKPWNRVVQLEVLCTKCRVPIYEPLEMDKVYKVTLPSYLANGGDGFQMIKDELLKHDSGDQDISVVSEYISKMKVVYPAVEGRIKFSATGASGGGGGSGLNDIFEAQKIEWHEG
Put plainly: ELISA, biotinylated NT5E on neutravidin plate, 1 mM ATP; ELISA, recombinant mNT5E, with ATP (EC50ATP). Here is the method:
(B) Protein ELISA: Protein-based multipoint ELISA was performed to estimate the affinity of the generated Fabs and IgGs to NT5E. The binding of the Fabs and IgGs to the closed form of NT5E were determined in ELISA buffer (HBST) supplemented with 10 μM zinc chloride and 1 mM ATP while the binding of the same to open form of NT5E were determined in ELISA buffer (HBST) without any cofactors. A fixed concentration of the immobilized target (50 nM) on ELISA plate was incubated with 3-fold serial dilutions of the purified Fabs and IgGs starting from 3 μM and 1 μM respectively for 15 min. The plates were washed and were subsequently incubated with a secondary HRP-conjugated anti-protein L monoclonal antibody (#32420, ThermoFisher, 1:6000 dilution). As with phage ELISA, the plates were again washed, developed with TMB substrate and quenched with 1.0 M HCl, and absorbance (Abs450) was determined. To determine the affinity (EC50), the data were fitted with a non-linear, 4-parameter logistic curve in OriginLab.

Assay [2] concerns the target T2, murine NT5E expressed on 4T1 cells (murine, UniProt Q61503 29-551).
T2 construct: whole, on cells; also called mouse NT5E-expressing 4T1 cells
T2 sequence (looked up): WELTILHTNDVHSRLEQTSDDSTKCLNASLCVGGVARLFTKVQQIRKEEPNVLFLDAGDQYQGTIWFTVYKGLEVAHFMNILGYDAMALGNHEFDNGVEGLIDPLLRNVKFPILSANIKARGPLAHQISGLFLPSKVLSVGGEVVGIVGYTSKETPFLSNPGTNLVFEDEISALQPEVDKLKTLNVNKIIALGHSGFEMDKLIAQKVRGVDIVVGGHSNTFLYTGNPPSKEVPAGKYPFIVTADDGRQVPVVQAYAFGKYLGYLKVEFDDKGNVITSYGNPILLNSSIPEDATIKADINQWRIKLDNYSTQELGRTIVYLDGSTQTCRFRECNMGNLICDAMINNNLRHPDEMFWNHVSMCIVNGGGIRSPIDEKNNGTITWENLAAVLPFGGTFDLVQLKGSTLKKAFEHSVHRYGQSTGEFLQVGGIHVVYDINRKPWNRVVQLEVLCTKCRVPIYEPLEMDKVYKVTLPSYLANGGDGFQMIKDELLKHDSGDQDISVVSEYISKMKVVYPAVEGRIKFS
Put plainly: flow cytometry on 4T1 cells, 1 mM ATP. Here is the method:
Human MDA-MB-231 cells and murine 4T1 cells were grown to 90% confluency, detached with 5 mM EDTA for 15 min at 37° C. and then resuspended in 37° C. lx PBS (#10010031, Gibco) supplemented with 1% FBS and 1OpM ZnCl2. Separate working buffers (WB) of PBS and 1% FBS with or without fixed nucleotide concentrations were used throughout all washing steps to maintain constant condition. In 96-well plates (#3799, Costar), 0.2×10⁶ cells were added per well. The plates were spun at 500×g for 5 min and the supernatant was removed. Anti-NT5E antibodies were diluted to the desired concentration in 100 μL WB, added to the cells and the plates were incubated for 20 min at 37° C. Plates were spun and cells were washed twice with WB then spun a second time. Cells were stained with 100 μL of secondary antibody (Alexa Fluor 647 AffiniPure Goat Anti-Human IgG, F(ab′)2 fragment specific, #109-605-006, Jackson, 1:200) dilution and plates were incubated for 20 min at 37° C. Cells were washed twice with WB then fixed on ice with WB supplemented with 0.5% PFA. Fixing solution was removed by centrifugation and cells were resuspended in cold 1× PBS. Samples were analyzed by flow cytometry using CytoFLEX (Beckman Coulter) and mean fluorescence intensity (MFI) data was extracted using FlowJo software. Resulting binding data was plotted using OriginLab.

B1: 1789 Fab (Fab, V domains shown)
VH: EVQLVESGGGLVQPGGSLRLSCAASGFNVSYSSIHWVRQAPGKGLEWVASISSSSGYTYYADSVKGRFTISADTSKNTAYLQMNSLRAEDTAVYYCARNYWGWYPFYYFAFDYWGQGTLVTV
VL: DIQMTQSPSSLSASVGDRVTITCRASQSVSSAVAWYQQKPGKAPKLLIYSASSLYSGVPSRFSGSRSGTDFTLTISSLQPEDFATYYCQQGWDYPITFGQGTKVEIKR
Regarding B1, the EC50 – broadly, the concentration giving half of the maximal effect – in assay [1] was 132 nM.

B2: 1789 IgG (antibody, V domains shown)
VH: EVQLVESGGGLVQPGGSLRLSCAASGFNVSYSSIHWVRQAPGKGLEWVASISSSSGYTYYADSVKGRFTISADTSKNTAYLQMNSLRAEDTAVYYCARNYWGWYPFYYFAFDYWGQGTLVTVSS
VL: B1 VL
In turn, B2 displayed an EC50 in assay [2] of 37.3 nM.
